Experiments:
[1] = test system: B16 mouse melanoma; details: cited from earlier work
[2] = test system: MXT mouse mammary tumor; assay: Cisplatin-treated MXT mouse mammary tumor model, PALP and TF (Example 9, Experiment 1); format: in vivo; details: co-treated with cisplatin 3-mg/kg i.p.
From the text: The B16 mouse melanoma and MXT mouse mammary tumors were developed in first generation hybrid BDF1 (C57 B1 female×DBA/2 male) adult female mice kept at specified pathogen free (SPF) hygienic level. These models were chosen for these experiments because these mice have the complete immune system, and both tumors grow very rapidly. To develop the tumors, B16 and MXT tumor tissue fragments of about 0.1-cm^3 were surgically implanted subcutaneously into the intrascapular region to develop the tumors. Each tumor fragment contained about 1-1.5×10^6 cells. The animals were kept in macrolon cages on ventilated rack at 22-24° C. (50-60% humidity) with lighting regimen of 12/12 h light/dark. The animals had free access to tap water and were fed with sterilized standard diet (Charles River VRF1, Germany) ad libitum. The animals were taken care of according to the “Guiding Principle for the care and use of Animals” based upon the Helsinki declaration and they were approved by the local ethical committee.
In case of both tumor models the tumor size was usually in the range of 0.2 to 0.5-g when treatments started 7-11 days after tumor implantation; the mice were selected so that in the same treatment group the difference in tumor size was no greater than 0.1 gram. In some experiments, the test proteins were suspended in physiological saline and injected in 50-μl volume subcutaneously in the vicinity of tumor (within 1-cm of tumor margin). In other experiments, the test proteins were dispersed in Vaselinum cholesteratum and used topically; 150-mg cream was applied on the tumor and the vicinity of tumor area (with about 0.5-cm of the tumor margin). The tumor volume was determined by using calipers; this technique is well known to one having ordinary skill in the art. Tumor volume was calculated according to the generally accepted formula: V=a^2×b×7r/6, where “a” and “b” mean the shortest and longest diameter, respectively, of the measured tumor.
Experiment 1. The mouse MXT mammary tumor was developed as described in Example 3. In the first group, animals remained untreated during the whole observation period. In the second group, starting on the 7th day after tumor implantation, mice were intraperitoneally (i.p.) administered 3-mg per 1-kg total weight of cisplatin 7-times every second day. In the third group, starting on the 7th day after tumor implantation, mice were simultaneously administered 3-mg per 1-kg of cisplatin i.p. and 16-mg per 1-kg of purified PALP s.c. In the fourth group, starting on the 7th day after tumor implantation, mice were simultaneously administered 3-mg per 1-kg of cisplatin i.p. and 60-mg per 1-kg of commercial PALP s.c. In the fifth group, starting on the 7th day after tumor implantation, mice were simultaneously administered 3-mg per 1-kg of cisplatin i.p. and 14-mg per 1-kg of commercial TF (T 3309 in the Sigma catalog) s.c. Each treatment was performed 7-times on every second day. Each group included 7 animals. The mean values for total weight, tumor weight and body weight (the difference between total and tumor weight) are shown in TABLE 6.

[3] = test system: mouse MXT tumor; details: cisplatin treated; cited from earlier work
[4] = test system: B16 mouse melanoma; assay: B16 mouse melanoma model, s.c. highly purified PALP (Example 4, Experiment 1); format: in vivo; details: highly purified PALP 14-mg/kg s.c.
From the text: The B16 mouse melanoma and MXT mouse mammary tumors were developed in first generation hybrid BDF1 (C57 B1 female×DBA/2 male) adult female mice kept at specified pathogen free (SPF) hygienic level. These models were chosen for these experiments because these mice have the complete immune system, and both tumors grow very rapidly. To develop the tumors, B16 and MXT tumor tissue fragments of about 0.1-cm^3 were surgically implanted subcutaneously into the intrascapular region to develop the tumors. Each tumor fragment contained about 1-1.5×10^6 cells. The animals were kept in macrolon cages on ventilated rack at 22-24° C. (50-60% humidity) with lighting regimen of 12/12 h light/dark. The animals had free access to tap water and were fed with sterilized standard diet (Charles River VRF1, Germany) ad libitum. […]
In case of both tumor models the tumor size was usually in the range of 0.2 to 0.5-g when treatments started 7-11 days after tumor implantation; the mice were selected so that in the same treatment group the difference in tumor size was no greater than 0.1 gram. […] The tumor volume was determined by using calipers; this technique is well known to one having ordinary skill in the art. Tumor volume was calculated according to the generally accepted formula: V=a^2×b×7r/6, where “a” and “b” mean the shortest and longest diameter, respectively, of the measured tumor. […]

[5] = test system: human HT 168 melanoma; details: total weight includes tumor weight; cited from earlier work

B1: highly purified PALP: human placental alkaline phosphatase purified to homogeneity from commercial PALP; printed as 'PALP' in Tables 1, 7, 8 (protein, UniProt P05187 23-506, looked up)
Alkaline phosphatase, …: IIPVEEENPDFWNREAAEALGAAKKLQPAQTAAKNLIIFLGDGMGVSTVTAARILKGQKKDKLGPEIPLAMDRFPYVALSKTYNVDKHVPDSGATATAYLCGVKGNFQTIGLSAAARFNQCNTTRGNEVISVMNRAKKAGKSVGVVTTTRVQHASPAGTYAHTVNRNWYSDADVPASARQEGCQDIATQLISNMDIDVILGGGRKYMFRMGTPDPEYPDDYSQGGTRLDGKNLVQEWLAKRQGARYVWNRTELMQASLDPSVTHLMGLFEPGDMKYEIHRDSTLDPSLMEMTEAALRLLSRNPRGFFLFVEGGRIDHGHHESRAYRALTETIMFDDAIERAGQLTSEEDTLSLVTADHSHVFSFGGYPLRGSSIFGLAPGKARDRKAYTVLLYGNGPGYVLKDGARPDVTESESGSPEYRQQSAVPLDEETHAGEDVAVFARGPQAHLVHGVQEQTFIAHVMAFAACLEPYTACDLAPPAGTTD
[1]; administered subcutaneously or topically
  Effect on tumor growth: reduced tumor growth
[1]; mouse, in vivo
  Effect on the action of CCDTHT on tumor growth: enhance the effect of CCDTHT
[2]
  Effect on body weight loss induced by the tumor and cisplatin: not only prevented the loss but significantly enhanced body weight
[3]
  Effect on total weight loss: reduce total weight loss
[4]
  Effect on loss of body weight: reversed loss of body weight
  Effect on tumor size: no major effects on the tumor size
[5]
  Effect on tumor induced loss of total weight: reduces tumor induced loss of total weight

— patent US20080098491A1, “MOUSE MODELS TO STUDY CACHEXIA” (ZOLTAN LABORATORIES LLC, priority 2006, published 2008)
